Reference: patent publication US10450368 (DUKE UNIVERSITY, dated 2019)

T1: Scl-70 (UniProt P11387 1-765)
T1 sequence: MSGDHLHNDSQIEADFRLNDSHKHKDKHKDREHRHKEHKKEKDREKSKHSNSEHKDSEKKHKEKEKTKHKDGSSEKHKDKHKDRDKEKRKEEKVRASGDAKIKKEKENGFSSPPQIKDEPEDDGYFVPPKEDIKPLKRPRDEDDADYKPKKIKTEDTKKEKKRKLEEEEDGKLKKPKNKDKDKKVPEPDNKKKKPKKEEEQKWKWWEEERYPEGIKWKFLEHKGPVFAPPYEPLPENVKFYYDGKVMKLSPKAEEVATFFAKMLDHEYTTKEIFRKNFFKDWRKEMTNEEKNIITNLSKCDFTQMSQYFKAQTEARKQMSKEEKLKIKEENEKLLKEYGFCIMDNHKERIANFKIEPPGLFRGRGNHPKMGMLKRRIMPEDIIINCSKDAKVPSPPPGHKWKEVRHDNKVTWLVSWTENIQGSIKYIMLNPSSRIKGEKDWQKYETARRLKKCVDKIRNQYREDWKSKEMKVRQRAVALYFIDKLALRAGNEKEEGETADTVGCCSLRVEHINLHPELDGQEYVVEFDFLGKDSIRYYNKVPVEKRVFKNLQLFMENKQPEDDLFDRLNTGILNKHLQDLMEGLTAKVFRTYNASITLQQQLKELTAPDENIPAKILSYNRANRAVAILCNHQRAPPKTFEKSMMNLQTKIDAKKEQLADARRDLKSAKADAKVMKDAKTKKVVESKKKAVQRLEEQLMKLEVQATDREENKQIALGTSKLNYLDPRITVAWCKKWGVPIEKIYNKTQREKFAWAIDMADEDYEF

T2: Jo-1 (UniProt P12081 1-509)
T2 sequence: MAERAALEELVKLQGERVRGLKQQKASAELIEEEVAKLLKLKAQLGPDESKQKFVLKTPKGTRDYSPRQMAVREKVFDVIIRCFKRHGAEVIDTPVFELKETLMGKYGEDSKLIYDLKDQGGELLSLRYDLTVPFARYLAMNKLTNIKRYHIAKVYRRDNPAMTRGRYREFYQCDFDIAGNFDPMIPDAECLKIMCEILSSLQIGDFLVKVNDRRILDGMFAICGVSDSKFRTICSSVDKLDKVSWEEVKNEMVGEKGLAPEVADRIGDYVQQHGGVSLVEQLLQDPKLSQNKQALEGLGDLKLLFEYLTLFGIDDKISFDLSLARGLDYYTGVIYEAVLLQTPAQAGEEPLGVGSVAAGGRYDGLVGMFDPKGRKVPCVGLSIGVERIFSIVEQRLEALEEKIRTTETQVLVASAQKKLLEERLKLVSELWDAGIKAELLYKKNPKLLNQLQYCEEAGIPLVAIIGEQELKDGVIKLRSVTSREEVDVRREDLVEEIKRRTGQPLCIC

T3: SSB (UniProt P05455 1-408)
T3 sequence: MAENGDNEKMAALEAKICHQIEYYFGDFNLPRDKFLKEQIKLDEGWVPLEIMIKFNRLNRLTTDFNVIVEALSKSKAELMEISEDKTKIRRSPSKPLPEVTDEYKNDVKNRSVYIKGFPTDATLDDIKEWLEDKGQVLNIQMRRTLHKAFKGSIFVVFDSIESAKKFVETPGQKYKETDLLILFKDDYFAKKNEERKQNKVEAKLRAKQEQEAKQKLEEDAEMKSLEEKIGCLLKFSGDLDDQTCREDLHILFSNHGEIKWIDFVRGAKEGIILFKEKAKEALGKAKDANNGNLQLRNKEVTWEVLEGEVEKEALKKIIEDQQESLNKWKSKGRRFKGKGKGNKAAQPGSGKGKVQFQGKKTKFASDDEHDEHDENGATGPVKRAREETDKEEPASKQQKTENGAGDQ

T4: Centromere B (UniProt P07199 1-599)
T4 construct: also called Cent B
T4 sequence: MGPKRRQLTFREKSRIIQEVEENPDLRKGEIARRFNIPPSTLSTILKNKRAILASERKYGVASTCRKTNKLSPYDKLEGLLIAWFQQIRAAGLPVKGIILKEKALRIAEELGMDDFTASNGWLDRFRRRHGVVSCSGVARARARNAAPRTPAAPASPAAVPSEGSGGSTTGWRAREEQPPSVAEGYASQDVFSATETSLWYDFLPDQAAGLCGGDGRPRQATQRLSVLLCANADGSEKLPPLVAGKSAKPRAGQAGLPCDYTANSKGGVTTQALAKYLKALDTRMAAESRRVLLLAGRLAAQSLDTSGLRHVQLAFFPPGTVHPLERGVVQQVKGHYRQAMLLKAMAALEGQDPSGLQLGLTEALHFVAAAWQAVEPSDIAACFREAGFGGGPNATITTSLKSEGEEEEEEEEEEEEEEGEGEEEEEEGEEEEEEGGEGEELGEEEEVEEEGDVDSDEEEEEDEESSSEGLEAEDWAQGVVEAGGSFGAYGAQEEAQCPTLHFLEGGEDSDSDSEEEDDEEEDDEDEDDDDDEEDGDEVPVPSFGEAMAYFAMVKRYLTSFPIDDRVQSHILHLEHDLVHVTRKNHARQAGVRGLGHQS


Assays:
[1] = target: T5, CH505.w30.12D8gp120; assay: ELISA
T5 construct: also called CH505w30.12 gp120

[2] = target: T6, CH505w030.20D8gp120/293F; assay: ELISA
T6 construct: also called CH505w30.20 gp120

[3] = target: T1, Scl-70; assay: ELISA, LogAUC grade
[4] = target: CH505w136.B18D8gp120; assay: ELISA
[5] = target: T7, CH505w020.14D8gp120; assay: ELISA
T7 construct: also called CH505w20.14 gp120

[6] = target: CH0505_CON D7gp120/293i; assay: ELISA
[7] = target: T8, CH505.TF mutant gp120 M20 (HIV-1); assay: ELISA
T8 construct: domain: gp120

[8] = target: CH505.M7D8gp120/293F; assay: ELISA
[9] = target: T9, CH505.TF mutant gp120 M8 (HIV-1); assay: ELISA
T9 construct: domain: gp120

[10] = target: CH505.M11D8gp120/293F; assay: ELISA
[11] = target: CH505.M21D8gp120/293F; assay: ELISA
[12] = target: CH505.M10D8gp120; assay: ELISA
[13] = target: CH505.M5D8gp120293F; assay: ELISA
[14] = target: CH505.M19D8gp120; assay: ELISA
[15] = target: T10, CH505.TF mutant gp120 M6 (HIV-1); assay: ELISA
T10 construct: domain: gp120

[16] = target: CH505.M9D8gp120/293F; assay: ELISA
[17] = target: T2, Jo-1; assay: ELISA, LogAUC grade
[18] = target: T3, SSB; assay: ELISA, LogAUC grade
[19] = target: T4, Centromere B; assay: ELISA, LogAUC grade

Binder | LogAUC [1] | LogAUC [2] | binding result [3] | LogAUC [4] | LogAUC [5] | LogAUC [6] | LogAUC [7] | LogAUC [8] | LogAUC [9] | LogAUC [10] | LogAUC [11] | LogAUC [12] | LogAUC [13] | LogAUC [14] | LogAUC [15] | LogAUC [16] | binding result [17] | binding result [18] | binding result [19]
CH555 (antibody, V domains shown, also called CH235.10) VH: QVQLVQSGATVKKPRASVTLSCRTSGYNFIDYFIHWVRRAPGQRLEVMGYIDPSRGRPDYAPNFRDRVSLYRDTSMSIVYLDLRDLTPDDTAIYYCVRSEGTEGTVLHYDHWGPGTRVTVSP VL: EIVLTQSPDTLSASPGERVTLSCRASQSVGTKVAWYRHVRGQPPRLLIYGASTRAAGIPARFSGGGSGTNFTLIINNFQSEDFAEYLCQQYKSWWTFGQGTKVDNK | 0 | 5.62 | no binding | 5.54 | 5.63 | 7.23 | 0 | 0.09 | 0 | 5.05 | 0 | 1.06 | 2.62 | 0 | 5.67 | 0.07 |  |  | 
CH556 (antibody, V domains shown, also called CH235.11) VH: QVQLVQSGGTVKSPGTSVTLSCKTSGYNFIDYYIHWVRRAPGQRPELMGYIDPSHGRPDYEGKFRDRISLYRDTSTSVVYMDVRGLRLDDTALYYCVRGGGVEVSSNHYDHWGPGTMVFVSP VL: ETTLTQSPDTLSASPGERVTLSCRAAQSVGSQVAWFRHIRGQPPRLLISGASTRAAGVPARFSGSGSGTDFTLTISGMQSEDFAEYFCQQYHMWWTFGQGTRVDKN | 0 | 0.69 | no binding | 0.11 | 0.11 | 0.26 | 0.28 | 0 | 0.29 | 0.11 | 0.1 | 1.06 | 1.26 | 0.09 | 0.09 | 0.23 |  |  | 
CH235.13 (antibody, V domains shown) VH: QVQLVQSGGGVKRPGSTTTISCVASGYSFNDYYIHWVRQAPGQGLEVLGFIDPSNGRTNYAGAFGDRFSMYRDKSMETLYMDLRNLRSDDTAMYYCVRNVGTAGSLLHYDHWGTGSKIIVSS VL: EIVLTQSPATLSASPGERVTLTCRASRGVRNNVAWYQHNVGQSPRLLIYDASTRAPGIPARFSGSASGTEFTLAISSIQSEDFTLYYCHQYNNWWTFGQGTRVDIN | 1.05 | 5.41 | no binding | 1.76 | 6.14 | 6.23 | 0 | 0 | 0 | 5.35 | 0 | 6.38 | 6.53 | 2.89 | 6.07 | 0 |  |  | 
CH235 UCA (antibody, V domains shown, also called unmutated common ancestor of the CH235 lineage) VH: QVQLVQSGAEVKKPGASVKVSCKASGYTFTSYYMHWVRQAPGQGLEWMGIINPSGGSTSYAQKFQGRVTMTRDTSTSTVYMELSSLRSEDTAVYYCARDVGTEGSLLHFDYWGQGTLVTVSS VL: not shown | 0 | 0 | no binding | 0 | 0 | 0 | 0 | 0 | 0 | 0 | 0 | 0 | 0.24 | 0 | 0 | 0 | no binding | no binding | no binding
